From the supplement of paper PMC7877785 come the findings set out here.

± gives the uncertainty stated by the source.

This data set in a line: self-splicing fitness, log relative to wild type (ln ratio); higher = more splicing; Tetrahymena group I intron in knt gene, E. coli kanamycin selection, DiMSum; sequences stand for … in CUCUCU…GGAGGGAAAAGUUAUCAGGCAUGCACCUGGUAGCUAGUCUUUAAACCAAUAGAUUGCAUCGGUUUAAAAGGCAAGACCGUCAAAUUGCGGGAAAGGGGUCAACAGCCGUUCAGUACCAAGUCUCAGGGGAAACUUUGAGAUGGCCUUGCAAAGGGUAUGGUAAUAAGCUGACGGACAUGGUCCUAACCACGCAGCCAAGUCCUAAGUCAACAGAUCUUCUGUUGAUAUGGAUGCAGUUCACAGACUAAAUGUCGGUCGGGGAAGAUGUAUUCUUCUCAUAAGAUAUAGUCGGACCUCUCCUUAAUGGGAGCUAGCGGAUGAAGUGAUGCAACACUGGAGCCGCUGGGAACUAAUUUGUAUGCGAAAGUAUAUUGAUUAGUUUUGGAGUACUCGUGGUCG
In short, it runs like this: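 Six replicate transformations of E. coli BL21(DE3) with a pET-22b(+) library were grown overnight at 37°C or 30°C. The library randomised all eight P1ex-region intron nucleotides, the intron lying in the knt kanamycin-resistance gene, and plates were LB agar with or without 25 μg/mL kanamycin plus 100 μg/mL carbenicillin, 50 μM IPTG and 0.2% rhamnose. Pooled colonies were amplicon-sequenced on an Illumina HiSeq 2500, and fitness is the DiMSum error-weighted combination of wild-type-normalised replicate fold changes, kanamycin versus none.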

For CCAAAGCAAUAUUACGGUAG, the “self-splicing fitness (ln)” value (30 °C) was -1.99 ± 0.056 and the “self-splicing fitness (ln)” value (37 °C) was -0.962 ± 0.066. For CAACAGCAAUAUUACGGUCU the same measures were -3.01 ± 0.11 and -2.07 ± 0.095. For UGCCAGCAAUAUUACGCUAG the same measures were -4.69 ± 0.39 and -1.35 ± 0.22.

With AGUAAGCAAUAUUACGUCCU, the “self-splicing fitness (ln)” value is -0.602 ± 0.21 (30 °C) and 0.854 ± 0.23 (37 °C). For the sequence GUAUAGCAAUAUUACGGGCC, the “self-splicing fitness (ln)” value (37 °C) is -1.55 ± 0.27.

AAGGAGCAAUAUUACGAGUA: the “self-splicing fitness (ln)” value was -3.6 ± 0.43 (30 °C) and -3.21 ± 0.4 (37 °C). The corresponding values for UUAUAGCAAUAUUACGUCGA are -0.277 ± 0.13 and -0.308 ± 0.15. On to GCUUAGCAAUAUUACGUGCU, for which the “self-splicing fitness (ln)” value (30 °C) is -2.78 ± 0.19 and the “self-splicing fitness (ln)” value (37 °C) is -1.41 ± 0.18. Take ACGCAGCAAUAUUACGCCAU: the “self-splicing fitness (ln)” value reads like this: (30 °C) -2.86 ± 0.17; (37 °C) -2.05 ± 0.17. The corresponding values for CCAAAGCAAUAUUACGCAGU are -3.71 ± 0.21 and -1.64 ± 0.16. With GUGGAGCAAUAUUACGUUAU, the “self-splicing fitness (ln)” value by setting is: (30 °C) -3.23 ± 0.26; (37 °C) -0.612 ± 0.14. For UCCAAGCAAUAUUACGUCGU the same measures were -0.899 ± 0.073 and -0.178 ± 0.085. The corresponding values for GACAAGCAAUAUUACGUUAA are -2.19 ± 0.12 and -1.71 ± 0.15. For ACUUAGCAAUAUUACGACCG the same measures were -0.573 ± 0.18 and -0.217 ± 0.26. On to UAGGAGCAAUAUUACGUAUG, for which the “self-splicing fitness (ln)” value (30 °C) was -3.04 ± 0.22 and the “self-splicing fitness (ln)” value (37 °C) is -1.71 ± 0.16. The corresponding values for AAGCAGCAAUAUUACGGGAC are -4.44 ± 0.46 and -3.38 ± 0.39. With GCAAAGCAAUAUUACGAUAC, the “self-splicing fitness (ln)” value by setting is: (30 °C) -1.69 ± 0.1; (37 °C) -0.587 ± 0.14. The corresponding values for CCCCAGCAAUAUUACGAUCU are -3.24 ± 0.13 and -3.06 ± 0.22. In the case of GAGAAGCAAUAUUACGAUGG, the “self-splicing fitness (ln)” value was -2.74 ± 0.16 (30 °C) and -1.69 ± 0.18 (37 °C).

For AGGUAGCAAUAUUACGGGCG, the “self-splicing fitness (ln)” value (30 °C) was -1.03 ± 0.015 and the “self-splicing fitness (ln)” value (37 °C) was -0.573 ± 0.034. Turning to UUCCAGCAAUAUUACGGAUC, the “self-splicing fitness (ln)” value reads like this: (30 °C) -3.83 ± 0.35; (37 °C) -1.75 ± 0.16. The corresponding values for AACCAGCAAUAUUACGGACC are 0.38 ± 0.1 and -0.273 ± 0.11. The corresponding values for GGUUAGCAAUAUUACGGGUU are -1.99 ± 0.1 and -1.48 ± 0.12. The corresponding values for CGCCAGCAAUAUUACGUUUC are -3.41 ± 0.12 and -2.42 ± 0.24. On to AUACAGCAAUAUUACGCUGU, for which the “self-splicing fitness (ln)” value runs as follows: (30 °C) -4.13 ± 0.36; (37 °C) -3.51 ± 0.33. The corresponding values for GCUUAGCAAUAUUACGGAGU are -2.9 ± 0.26 and -0.418 ± 0.19. On to ACACAGCAAUAUUACGCUUC, for which the “self-splicing fitness (ln)” value (37 °C) was -3.08 ± 0.23. On to UAACAGCAAUAUUACGCAAA, for which the “self-splicing fitness (ln)” value is -3.11 ± 0.19 (30 °C) and -2.3 ± 0.12 (37 °C). For UAGUAGCAAUAUUACGCUUA the same measures were -1.15 ± 0.14 and -0.806 ± 0.13. For the sequence GAAUAGCAAUAUUACGCAUG, the “self-splicing fitness (ln)” value is -0.0618 ± 0.089 (30 °C) and -0.902 ± 0.091 (37 °C). For AGGUAGCAAUAUUACGUCGC the same measures were -2.37 ± 0.023 and -1.48 ± 0.037. For GUAGAGCAAUAUUACGGUUA, the “self-splicing fitness (ln)” value reads like this: (30 °C) -1.35 ± 0.11; (37 °C) -0.0418 ± 0.13. The corresponding values for AUGUAGCAAUAUUACGAGGA are -3 ± 0.41 and -2.11 ± 0.43. For CGUCAGCAAUAUUACGUAGC the same measures were -2.81 ± 0.12 and -2.29 ± 0.14.

In the case of UUUCAGCAAUAUUACGUCUC, the “self-splicing fitness (ln)” value is -3.39 ± 0.4 (30 °C) and -0.735 ± 0.17 (37 °C). With CUGCAGCAAUAUUACGUCUC, the “self-splicing fitness (ln)” value (37 °C) was -2.12 ± 0.26. For CAACAGCAAUAUUACGCUGG, the “self-splicing fitness (ln)” value runs as follows: (30 °C) -3.71 ± 0.18; (37 °C) -2.01 ± 0.16.

CCCAAGCAAUAUUACGCAUU: the “self-splicing fitness (ln)” value was -3.82 ± 0.2 (30 °C) and -2.04 ± 0.19 (37 °C). The corresponding values for GAAGAGCAAUAUUACGAGCG are -3.17 ± 0.2 and -0.882 ± 0.17. For GACCAGCAAUAUUACGAUGU the same measures were -0.366 ± 0.055 and 0.0308 ± 0.072. For AUGGAGCAAUAUUACGGAGG the same measures were -2.11 ± 0.17 and -2.54 ± 0.3. Turning to CAACAGCAAUAUUACGUAAC, the “self-splicing fitness (ln)” value is -3.71 ± 0.23 (30 °C) and -2.41 ± 0.24 (37 °C). The corresponding values for GAAUAGCAAUAUUACGAUAU are -1.43 ± 0.068 and -0.744 ± 0.085. For GCUCAGCAAUAUUACGGCUA the same measures were -0.707 ± 0.13 and -0.758 ± 0.12.

As for CAUGAGCAAUAUUACGCGUU, the “self-splicing fitness (ln)” value (30 °C) is -4.13 ± 0.42 and the “self-splicing fitness (ln)” value (37 °C) was -2.35 ± 0.26. On to AAGCAGCAAUAUUACGCGUA, for which the “self-splicing fitness (ln)” value was -1.57 ± 0.11 (30 °C) and -0.515 ± 0.1 (37 °C). The corresponding values for UACCAGCAAUAUUACGAUAA are -0.622 ± 0.093 and -0.122 ± 0.1.

For the sequence CCGGAGCAAUAUUACGCCUC, where the note is “37 °C”, the “self-splicing fitness (ln)” value is -2.47 ± 0.41. AUACAGCAAUAUUACGGGGA: the “self-splicing fitness (ln)” value by setting is: (30 °C) -2.98 ± 0.21; (37 °C) -2.3 ± 0.14. The corresponding values for AUUAAGCAAUAUUACGUAAC are -2.12 ± 0.12 and -1.88 ± 0.14. On to GCAUAGCAAUAUUACGCAUG, for which the “self-splicing fitness (ln)” value was -3.79 ± 0.23 (30 °C) and -2.12 ± 0.19 (37 °C). For GCCGAGCAAUAUUACGAGUG the same measures were -2.22 ± 0.14 and -2.16 ± 0.13. For UUACAGCAAUAUUACGGGGA the same measures were -0.473 ± 0.076 and -0.871 ± 0.089.

As for CCCCAGCAAUAUUACGUUCG, the “self-splicing fitness (ln)” value by setting is: (30 °C) -3.53 ± 0.16; (37 °C) -2.79 ± 0.17. The corresponding values for AUACAGCAAUAUUACGUUCC are -2.46 ± 0.15 and -0.684 ± 0.14. As for AGUGAGCAAUAUUACGCUAU, the “self-splicing fitness (ln)” value is -3.19 ± 0.23 (30 °C) and -2.43 ± 0.42 (37 °C). Regarding AUAGAGCAAUAUUACGUAUG, the “self-splicing fitness (ln)” value by setting is: (30 °C) -3.22 ± 0.17; (37 °C) -0.602 ± 0.14.

Consider ACUAAGCAAUAUUACGCCAA, for which the “self-splicing fitness (ln)” value runs as follows: (30 °C) -2.24 ± 0.12; (37 °C) -2.26 ± 0.16. Regarding GACGAGCAAUAUUACGAACG, the “self-splicing fitness (ln)” value (30 °C) was -0.929 ± 0.34.

With AGGAAGCAAUAUUACGGACU, the “self-splicing fitness (ln)” value by setting is: (30 °C) -0.293 ± 0.11; (37 °C) -0.668 ± 0.097. Regarding GCCAAGCAAUAUUACGAAAG, the “self-splicing fitness (ln)” value reads like this: (30 °C) -3.63 ± 0.21; (37 °C) -0.702 ± 0.2. Regarding CCUAAGCAAUAUUACGAUAC, the “self-splicing fitness (ln)” value was -3.63 ± 0.4 (30 °C) and -2.3 ± 0.27 (37 °C).

With CAGUAGCAAUAUUACGCACU, the “self-splicing fitness (ln)” value (30 °C) is -2.19 ± 0.18 and the “self-splicing fitness (ln)” value (37 °C) is -1.34 ± 0.17. The corresponding values for AAACAGCAAUAUUACGCACG are -1.45 ± 0.099 and -0.888 ± 0.11.

On to AUUGAGCAAUAUUACGGUCU, for which the “self-splicing fitness (ln)” value (30 °C) is -2.72 ± 0.15 and the “self-splicing fitness (ln)” value (37 °C) was -2.56 ± 0.25. For AGAGAGCAAUAUUACGAACC the same measures were -2.98 ± 0.39 and -1.57 ± 0.38. For UUGUAGCAAUAUUACGCAAA the same measures were -2.73 ± 0.35 and -1.05 ± 0.26.

As to CGUAAGCAAUAUUACGCAAG, the “self-splicing fitness (ln)” value runs as follows: (30 °C) -1.99 ± 0.13; (37 °C) -1.01 ± 0.13. The corresponding values for GGCCAGCAAUAUUACGUAAA are -1.26 ± 0.11 and -0.35 ± 0.14. For UCUGAGCAAUAUUACGAUGG the same measures were -1.42 ± 0.16 and -0.717 ± 0.2. As for ACGAAGCAAUAUUACGCCAU, the “self-splicing fitness (ln)” value was -4.46 ± 0.39 (30 °C) and -3.02 ± 0.26 (37 °C). For GUUCAGCAAUAUUACGUUCG the same measures were -0.684 ± 0.067 and 0.137 ± 0.1.

As for CGCCAGCAAUAUUACGCGGU, the “self-splicing fitness (ln)” value reads like this: (30 °C) -3.04 ± 0.13; (37 °C) -3.3 ± 0.22.

For the sequence GACGAGCAAUAUUACGGUUC, the “self-splicing fitness (ln)” value (37 °C) is -3.11 ± 0.47.

For the sequence GUUGAGCAAUAUUACGUACC, the “self-splicing fitness (ln)” value (30 °C) is -1.75 ± 0.36. Take ACGCAGCAAUAUUACGUUUG: the “self-splicing fitness (ln)” value (30 °C) was -3.65 ± 0.2 and the “self-splicing fitness (ln)” value (37 °C) is -2.69 ± 0.2.

As for GUACAGCAAUAUUACGGGAU, the “self-splicing fitness (ln)” value by setting is: (30 °C) -3.85 ± 0.15; (37 °C) -2.59 ± 0.13.
